Among the data in patent US20190023745A1 are EC50, neutralization in Vero cells and PRNT50 (plaque reduction neutralization test, BHK-21 cells) values, retold here.

Test [1] deals with Zika virus MR766 envelope (E) protein, on virus particles (Zika virus strain MR766) (UniProt Q32ZE1). The test can be described thus: cell-based or functional assay.
Test [2] has as its target Zika virus H/PF/2013 envelope (E) protein, on virus particles (Zika virus strain H/PF/2013). As to the kind of experiment: cell-based or functional assay.

EDE1 C8 monoclonal antibody: the EC50, neutralization in Vero cells in test [1] stood at 0.89 ng/mL.
The substance EDE1 C10 monoclonal antibody gave a PRNT50 (plaque reduction neutralization test, BHK-21 cells) in test [2] of 0.024 µg/mL. Besides, in test [1], the EC50, neutralization in Vero cells was determined as 0.34 ng/mL.
